From patent publication US20070231333A1, “ANTI-5T4 ANTIBODIES AND USES THEREOF” (Wyeth, priority 2006, published 2007)

Tests used:
human 5T4 antigen [1] = target: T1, human 5T4 antigen (Homo sapiens, UniProt Q13641); assay: BIACORE analysis of antibody binding to human 5T4 antigen immobilized on a CM5 chip; conditions: murine antibodies, Table 3
T1 sequence (Q13641 32-420): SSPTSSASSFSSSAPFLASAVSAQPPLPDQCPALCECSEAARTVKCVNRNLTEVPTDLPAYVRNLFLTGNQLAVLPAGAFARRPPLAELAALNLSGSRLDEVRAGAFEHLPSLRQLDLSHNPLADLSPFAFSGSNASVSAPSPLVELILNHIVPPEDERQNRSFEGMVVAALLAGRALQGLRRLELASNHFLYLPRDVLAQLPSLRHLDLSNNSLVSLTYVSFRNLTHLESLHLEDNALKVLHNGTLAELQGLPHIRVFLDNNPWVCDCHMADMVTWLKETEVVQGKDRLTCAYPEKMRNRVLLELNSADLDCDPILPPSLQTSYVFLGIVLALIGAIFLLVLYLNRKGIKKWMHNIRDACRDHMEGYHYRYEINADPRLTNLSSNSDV
Experimental: To assess the binding specificity and affinity of the A1, A2, and A3 antibodies, BIACORE® analysis was performed using human 5T4 antigen immobilized on a CM5 chip. BIACORE® technology utilizes changes in the refractive index at the surface layer upon binding of the antibody to the 5T4 antigen immobilized on the layer. Binding is detected by surface plasmon resonance (SPR) of laser light refracting from the surface. Analysis of the signal kinetics on rate and off rate allows discrimination between non-specific and specific interactions. The H8 anti-5T4 antibody was used as a control. H8 is a hybridoma-generated monoclonal mouse IgG1 antibody described in PCT International Publication No. WO 98/55607 and in Forsberg et al. (1997) J. Biol. Chem. 272(19):[…].
To assess the binding specificity and affinity of the chimeric and humanized H8, A1, A2, and A3 antibodies, BIACORE® analysis was performed using human 5T4 antigen immobilized on a CM5 chip. See Example 2.

[2] = target: T2, 5T4-expressing PC14PE6 cells (Homo sapiens, UniProt Q13641); assay: FACS binding to 5T4-expressing PC14PE6 cells; assay type: cell-based
T2 construct: endogenous in cells; host or cells: PC14PE6 cells
T2 sequence (Q13641 32-420): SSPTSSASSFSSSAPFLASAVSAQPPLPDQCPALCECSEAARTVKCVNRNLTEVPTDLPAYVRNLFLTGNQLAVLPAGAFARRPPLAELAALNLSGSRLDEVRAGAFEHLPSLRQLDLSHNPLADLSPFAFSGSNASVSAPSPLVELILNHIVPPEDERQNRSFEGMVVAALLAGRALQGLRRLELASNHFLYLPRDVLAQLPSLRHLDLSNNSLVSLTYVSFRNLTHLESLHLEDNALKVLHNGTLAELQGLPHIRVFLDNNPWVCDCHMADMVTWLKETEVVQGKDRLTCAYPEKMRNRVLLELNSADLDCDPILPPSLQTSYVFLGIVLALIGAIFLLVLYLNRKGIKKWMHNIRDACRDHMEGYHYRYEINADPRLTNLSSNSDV
Experimental: The ability of the H8, A1, A2, and A3 antibodies to bind cells expressing 5T4 antigen was assayed using fluorescence activated cell sorting (FACS) of PC14PE6 cells.

[3] = tested on: human/mouse 173-258 5T4 chimera; assay: Epitope mapping ELISA, human/mouse 5T4 chimeras; assay type: binding; design: key: +: binding; −: no binding; +/−: partial binding
Experimental: (§1) To identify the epitopes to which each of the A1, A2, A3, and H8 antibodies bind, ELISA assays were performed using (1) 5T4 ectodomain Fc constructs with deleted or mutated sequences, and (2) 5T4 chimera constructs transiently expressed in COS-1 cells. The ectodomain includes the amino-terminal region, two leucine-rich repeats, and the intervening hydrophilic region. Fusion proteins containing a 5T4 ectodomain and a Fc constant regions from human IgG1 were prepared using mouse 5T4 (amino acids 1-361), rat 5T4 (amino acids 1-361), cynomologous monkey 5T4 (amino acids 1-355), chimpanzee 5T4 (amino acids 1-355), and black-tailed marmoset (amino acids 1-355). The 5T4 chimera constructs are depicted in FIG. 5. The binding results are summarized in Table 5, which indicates specific binding, partial binding, or lack of binding, by each of the H8, A1, A2, and A3 antibodies.

[4] = tested on: human/mouse 282-361 5T4 chimera (with or without N-link at position 344); assay: Epitope mapping ELISA, human/mouse 5T4 chimeras; assay type: binding; design: key: +: binding; −: no binding; +/−: partial binding; conditions: human/mouse 282-361 (with or without N-link at position 344)
Experimental: as §1

[5] = tested on: human/mouse 83-163 5T4 chimera; assay: Epitope mapping ELISA, human/mouse 5T4 chimeras; assay type: binding; design: key: +: binding; −: no binding; +/−: partial binding
Experimental: as §1

[6] = target: T3, human 5T4 ectodomain Fc fusion protein (Homo sapiens, UniProt Q13641); assay: Competitive binding assay with biotinylated humanized H8 antibody; conditions: FIGS. 6A-6B
T3 construct: Human; 100; 1-355; made in house; host or cells: COS-1 cells (transient)
T3 sequence (Q13641 32-355): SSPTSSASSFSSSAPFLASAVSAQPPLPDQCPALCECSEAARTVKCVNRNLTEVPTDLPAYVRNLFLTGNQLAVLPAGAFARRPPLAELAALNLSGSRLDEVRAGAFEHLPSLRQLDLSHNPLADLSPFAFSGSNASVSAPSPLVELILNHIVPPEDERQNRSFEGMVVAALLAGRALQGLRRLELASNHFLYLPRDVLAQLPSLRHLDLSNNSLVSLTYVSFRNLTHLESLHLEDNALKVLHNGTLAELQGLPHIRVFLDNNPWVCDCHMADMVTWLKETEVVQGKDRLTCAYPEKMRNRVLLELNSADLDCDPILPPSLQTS
Description: FIGS. 6A-6B show graphical results of competitive binding of humanized H8 and each of the indicated antibodies to human 5T4 ectodomain Fc fusion protein. HuH8, humanized H8 antibody; ChiA1, chimeric A1 antibody; ChiA1+C67F, chimeric A1 antibody bearing C67F mutation; ChiA2, chimeric A2 antibody; muA2, murine A2 antibody; ChiA3, chimeric A3 antibody; ChiA3+C91Y, chimeric A3 antibody bearing C91Y mutation, muA3, murine A3 antibody; No Ab, no antibody (control).
In addition to direct binding assays, competitive binding assays were performed using biotinylated humanized H8 antibody and each of the A1, A2, or A3 antibodies. Inhibition of binding to human 5T4 was not observed, supporting that each of A1, A2, and A3 binds to a 5T4 epitope that is distinct from that bound by the H8 antibody.

human 5T4 antigen [7] = target: T1, human 5T4 antigen; assay: BIACORE competition assay: second antibody after saturation with first antibody; assay type: binding
Experimental: Epitope mapping of the H8, A1, A2, and A3 antibodies was also performed using BIACORE® using a CM5 chip with bound human 5T4 antigen. The chip was saturated with H8, A1, A2, or A3 antibody, and a first response was measured. The chip was then saturated with a second antibody from among the H8, A1, A2, and A3 antibodies, and a second response was measured. For multiple experiments, the chip was regenerated by dissociation of the bound antibodies in 10 mM glycine, pH 1.5, followed by a buffer wash. The percentages shown are the response units measured upon binding by a second antibody directly to the CM5 chip divided by the response units measured upon binding of the second antibody to a CM5 chip saturated with a first antibody.
The epitopes bound by the H8 and A3 antibodies are sterically close to each other such that the rate of association with antigen is decreased when binding of H8 is assayed in the presence of A3, and vice versa. Similar results were obtained using the chimeric and humanized H8, A1, A2, and A3 antibodies, which were prepared as described in Example 7 herein below.

B1: A2: murine anti-5T4 monoclonal antibody (IgG2b heavy chain); VH residues 19-135 of SEQ ID NO:6, VL residues 23-130 of SEQ ID NO:8 (antibody, listed as Mus musculus, V domains shown)
VH: MEWRIFLFILSGTAGVHSQVQLQQSRPELVKPGASVKMSCKASGYTFTDYVISWVKQRTGQGLEWIGEIYPGSNSIYYNEKFKGRATLTADKSSSTAYMQLSSLTSEDSAVYFCAMGGNYGFDYWGQGTTLTVSS
VL: MDFQVQIFSFLLISASVIMSRGQIVLTQSPAIMSASLGERVTLTCTASSSVNSNYLHWYQQKPGSSPKLWIYSTSNLASGVPARFSGSGSGTSYSLTISSMEAEDAATYYCHQYHRSPLTFGAGTKLELK
modifications: (1)..(18) leader sequence; (19)..(135) heavy chain variable region; (44)..(53) CDR1; (68)..(84) CDR2; (117)..(124) CDR3; (1)..(22) leader sequence; (23)..(130) light chain variable region; (46)..(56) CDR1; (73)..(79) CDR2; (112)..(120) CDR3
KA (human 5T4 antigen [1]): 6.5e+07 M⁻¹ | ka (human 5T4 antigen [1]): 56000 M⁻¹ s⁻¹ | kd (human 5T4 antigen [1]): 0.00087 s⁻¹ | binding to 5T4-expressing PC14PE6 cells (in words) [2]: significantly lower | binding to 5T4 antigen construct [3]: + | binding to 5T4 antigen construct [4]: − | binding to 5T4 antigen construct [5]: + | inhibition of binding of biotinylated humanized H8 to human 5T4 [6]: not observed | Percentage Response of Second Antibody Following Saturation With First Antibody (human 5T4 antigen [7]; 1st antibody A1): 98% | Percentage Response of Second Antibody Following Saturation With First Antibody (human 5T4 antigen [7]; 1st antibody A3): 94%
